± gives the uncertainty stated by the source.
Assay: protein stability index of a GFP-peptide fusion (yeast GPS) (PSI 1-4); higher = more stable; sorted into four equal gates, so the index is relative within each strain
Procedure, shortened: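 Sequencing reads from sorted gates were used to score each peptide. The library consisted of tiled 17-residue yeast protein peptides fused downstream of GFP on a Cherry-expressing plasmid, pooled and carried in yeast. Mid-log cultures in leucine-free medium were split into four equal gates by GFP/Cherry ratio, and each gate's plasmids were PCR-amplified and Illumina-sequenced. The protein stability index adds up, over all gates, the read frequency multiplied by the gate number.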

Sequence	protein stability index (doa10∆)	protein stability index (pdr5∆)	protein stability index (san1∆)	protein stability index (ubr1∆)
KVVIPNLLCYYNLRSLN [RPN3]	2.44 ± 0.19	2.54 ± 0.081	2.74 ± 0.13	2.65 ± 0.1
HTKSDERSELLRLFNAP [SNF2]	2.83 ± 0.06	2.72 ± 0.065	2.78 ± 0.049	3.04 ± 0.06
AFTRKQANQVKRHSYAQ [RPS1A]	1.8 ± 0.024	1.75 ± 0.024	2.03 ± 0.034	2.01 ± 0.027
KLIIHRKNDNANDHDES [SMC3]		1.73 ± 0.21		1.36 ± 0.11
KDIEKLTNEISDLKGKL [YIL149C/MLP2]	3.04 ± 0.11	3.12 ± 0.049	3.34 ± 0.067	3.17 ± 0.057
ELYSFQQLVDSEKRLDH [SNF12]	1.35 ± 0.095	2.26 ± 0.074	2.26 ± 0.11	1.57 ± 0.053
VVNSNFAKEHNATVNLA [YJR042W/NUP85]	2.82 ± 0.1	2.32 ± 0.12	2.75 ± 0.078	2.67 ± 0.13
VNYRHFKAMEDVIAWKN [ITC1]	2.98 ± 0.15	3.36 ± 0.17	3.27 ± 0.077	3.37 ± 0.065
KMFQDIRLSKILEDDFA [CDC53]	2.94 ± 0.062	3.04 ± 0.088	2.62 ± 0.072	2.93 ± 0.063
NGRLNKCGVISPRFNVK [RPS22A]	2.58 ± 0.29	2.85 ± 0.23	2.88 ± 0.2	3.22 ± 0.11
LVSSYLNKSDLLDKYGK [YML103C/NUP188]	2.87 ± 0.091	3.13 ± 0.058	3.17 ± 0.053	2.89 ± 0.065
GAINVANCQRQLTEFWT [NNF1]	3.2 ± 0.16	2.76 ± 0.13	2.71 ± 0.21	
QRSRRKFSERRKALPKE [DSN1]	3.47 ± 0.22		3.52 ± 0.099	
MADLQKQENSSRFTNVS [YMR153W/NUP53]	3.23 ± 0.15	3.1 ± 0.14	2.36 ± 0.24	3.31 ± 0.12
SRGNGGKKVLNKNQLLK [POP1]	1.86 ± 0.14	2.54 ± 0.11	2.53 ± 0.14	3.43 ± 0.11
ELEFIQSLANIQYVTYL [SOH1]	2.48 ± 0.068	2.54 ± 0.053	2.71 ± 0.052	2.72 ± 0.041
KILSILNRSHFATTKAE [ECM29]	2.68 ± 0.076	2.33 ± 0.048	2.4 ± 0.047	2.19 ± 0.037
KVYYFQGGNNELGTAVG [RPL30]	2.67 ± 0.093	2.91 ± 0.086	2.54 ± 0.054	2.89 ± 0.072
VHVIHFQHADNSSMRYG [AAR2]	2.73 ± 0.081	2.7 ± 0.073	2.32 ± 0.11	2.53 ± 0.055
DNNTASNMLGSNEDVMM [RPB3]	2.04 ± 0.25	2.43 ± 0.17	2.31 ± 0.25	
KAKVDDLVLGKPLADLR [YLR335W/NUP2]	3.23 ± 0.25	3.56 ± 0.21	3.39 ± 0.072	3.35 ± 0.09
SADCELLGIDATVPSGR [RPO31]		3.06 ± 0.18		3.32 ± 0.081
STLYKYLKESKRKYDEI [SWI3]	3.51 ± 0.12	3.42 ± 0.24	3.21 ± 0.17	2.84 ± 0.15
LGYPPISLVDDIINAVN [MTW1]	2.46 ± 0.076	2.14 ± 0.065	2.44 ± 0.063	1.94 ± 0.069
EMDSVSKSMKFSRRFDC [CSN9]	2.56 ± 0.11	2.6 ± 0.076	2.71 ± 0.054	2.85 ± 0.047
ITHPGKMELVYVSDSDD [SIR4]	3.24 ± 0.077	3.34 ± 0.075	3.31 ± 0.085	3.25 ± 0.073
SQSLTSILVIVQKILPL [SWI1]	1.38 ± 0.041	1.39 ± 0.035	1.48 ± 0.066	1.61 ± 0.033

Sequence	protein stability index (doa10∆)	protein stability index (pdr5∆)	protein stability index (san1∆)	protein stability index (ubr1∆)
WKYEDVVAKLEDKRKVR [RPL16B]	3.12 ± 0.064	2.32 ± 0.059	2.36 ± 0.093	2.02 ± 0.045
RKAYFTAPSSQRRVLLS [RPL26A]	2.44 ± 0.055	2.14 ± 0.056	2.54 ± 0.054	1.74 ± 0.047
DQAELPNNASSHISASA [SNF2]	1.79 ± 0.085	2.35 ± 0.068	2.1 ± 0.13	2.35 ± 0.063
ITYGIIKVPTYIRKLIS [SRB8]	1.32 ± 0.074	1.44 ± 0.091	1.42 ± 0.2	1.36 ± 0.085
THAQRTGLSQIPNRRFT [PRP8]	2.8 ± 0.048	2.62 ± 0.047	2.83 ± 0.048	2.88 ± 0.043
IRPTELRLPFSAAMSID [PRP8]	1.93 ± 0.049	1.98 ± 0.037	1.78 ± 0.057	2.24 ± 0.037
DMSKILVDQGFNYSGKD [RET1]	3.36 ± 0.073	3.31 ± 0.065	3.31 ± 0.04	3.49 ± 0.042
QKLWLLECQLFPQGLNI [SSN8]	2.16 ± 0.068	1.92 ± 0.06	1.66 ± 0.13	2.11 ± 0.076
AKNIISNVLDGNKNQFE [LRP1]	2.46 ± 0.056	2.77 ± 0.049	2.92 ± 0.045	3.23 ± 0.049
RFTKFSDTLKEFKIEQN [YDL116W/NUP84]	1.74 ± 0.076	1.74 ± 0.081	1.42 ± 0.18	1.45 ± 0.058
VNYNSDMIKCFLPKLNS [NUT1]	2.66 ± 0.13	1.98 ± 0.12	2.06 ± 0.13	1.27 ± 0.066
RKILESSNIVNENDSQA [YIL149C/MLP2]		2.88 ± 0.14	2.89 ± 0.085	
IMNELYRMKGGRVTFIP [SMC3]	2.12 ± 0.23			3.66 ± 0.16
MNKDQAEKYQERSLRQK [SNM1]	3.3 ± 0.089	3.25 ± 0.089	3.35 ± 0.069	3.53 ± 0.093
SKYYPGVIIKVEESGEH [SNU114]	1.96 ± 0.061	2.08 ± 0.077	2.28 ± 0.08	2.42 ± 0.073
TKMFEDRREKAERTMSK [SMC2]	3.4 ± 0.14	3.37 ± 0.1	3.22 ± 0.086	3.54 ± 0.088
VRDTSPHGISVFLSNLV [BRR2]	1.35 ± 0.1	1.54 ± 0.077	2.55 ± 0.078	2.34 ± 0.049
AQQKLKQNPGLMQNMMN [SRP54]	2.74 ± 0.056	2.42 ± 0.059	2.79 ± 0.044	2.54 ± 0.033
IKAPTVAADGKLVTYIV [YLR335W/NUP2]	1.61 ± 0.07	1.92 ± 0.059	1.55 ± 0.084	2.16 ± 0.048
DPLLAGLGETSGDNHTQ [RPT4]	2.77 ± 0.26	3.43 ± 0.21	3.5 ± 0.19	3.25 ± 0.16
VISNLVPKLESSRTKFW [YJL039C/NUP192]	2.36 ± 0.26	2.6 ± 0.13	2.48 ± 0.28	2.69 ± 0.2
SESDLDEDKNFPRSRSR [ESC2]	2.98 ± 0.087	3.24 ± 0.08	3.32 ± 0.059	3.28 ± 0.054
AELFNNDIKLFVDDTNV [PRP8]	2.17 ± 0.065	2.09 ± 0.053	2.46 ± 0.054	2.13 ± 0.034
KRFQVLYPCYFDINRSH [SEC65]	2.11 ± 0.062	2.11 ± 0.055	1.88 ± 0.071	2.06 ± 0.039
QFLYEKHYKNIPRNSPL [RPC82]	1.92 ± 0.068	1.9 ± 0.056	1.68 ± 0.066	2.08 ± 0.035
LKLNTSLPSKLTKYKEM [SRP68]	1.77 ± 0.075	1.74 ± 0.065	1.58 ± 0.1	1.95 ± 0.053
VPYVLMGQIATFIYFAY [COB]	1.38 ± 0.1	1.23 ± 0.1	1.17 ± 0.16	1.28 ± 0.078

From the supplement of paper PMC9732359
